Laboratory results taken from PMC3637433 (The FEBS journal, 2013).
Read-outs that look alike come from different tables or passages of the source. One block for each molecule: values may come before it. Square brackets hold non-standard residues; d marks the D form. Ends that are not written are not given here. sY = N[C@@H](Cc1ccc(OS(=O)(=O)O)cc1)C(=O)O

How the values were obtained:
[1] = molecular target: RANTES (E66S mutant of human RANTES) (human); experiment: 1H-15N-HSQC, intensities of monomer and dimer cross-peaks
[2] = molecular target: RANTES (E66S mutant of human RANTES) (human); experiment: as above; remark: listed apart in the source
[3] = molecular target: RANTES (E66S mutant of human RANTES) (human); experiment: as above; remark: listed apart in the source
[4] = molecular target: RANTES (E66S mutant of human RANTES) (human); experiment: as above; remark: listed apart in the source
[5] = molecular target: RANTES (E66S mutant of human RANTES) (human); experiment: as above; remark: listed apart in the source
[6] = molecular target: CCR5 N-terminal peptide (Nt-CCR5) N-terminus (Homo sapiens) (UniProt P51681); details: cited from earlier work
RANTES = molecular target: T1, RANTES (Homo sapiens, UniProt P13501, E89S); experiment: 1H-15N-HSQC NMR titration of U-15N-RANTES; type: binding; details: 293 K, pH 4.8; peptide up to 2.9 mM, 64 molar excess relative to RANTES; KD could not be extracted
T1 sequence (P13501 24-91 E89S): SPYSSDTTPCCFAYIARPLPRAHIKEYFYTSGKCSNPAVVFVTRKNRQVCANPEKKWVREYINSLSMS

[7] = molecular target: RANTES (E66S mutant of human RANTES) (human); experiment: NMR titration
[8] = molecular target: RANTES (E66S mutant of human RANTES) (human); experiment: NMR titration; remark: listed apart in the source
[9] = molecular target: RANTES (E66S mutant of human RANTES) (human); experiment: NMR titration; remark: listed apart in the source

CCR5 N-terminal peptide (Nt-CCR5) N-terminus (Homo sapiens), sequence (P51681 1-27): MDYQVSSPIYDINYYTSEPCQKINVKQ

- ratio of monomer/dimer peak intensities, IM/ID [1]: 0.13
- ratio of monomer/dimer peak intensities, IM/ID [2]: 0.45
- stoichiometry N [2]: 2
- ratio of monomer/dimer peak intensities, IM/ID [3]: < 0.1
- ratio of monomer/dimer peak intensities, IM/ID [4]: 0.2
- ratio of monomer/dimer peak intensities, IM/ID [5]: 1.57
Molecule: RANTES (E66S mutant of human RANTES) (ligand)

Molecule: RANTES (from UniProt P13501)
- Kd [6]: 1 µM

- Saturation of RANTES chemical shift changes on titration (RANTES): saturation was not achieved
Molecule: TRSQKEGLHYTSSSHFPYSQYQ [ECL2]

- Kd [7]: 16 µM
- Kd [8]: 100 µM
- Kd [9]: 84 µM
Molecule: MDYQVSSPI[sY]DIN[sY]YTSEPAQKINVKQ [Nt-CCR5 peptide (CCR5 residues 1-27), sulfated at Y10 and Y14]
